The series “crystal structure” deals with the molecule itself. As to the kind of experiment: crystal structure.
The series “SEC” deals with the molecule itself. As to the kind of experiment: SEC. A general note: Size exclusion chromatography separates by hydrodynamic size, large species first.

Numbering of substitutions follows the chain as printed. Names and notes keep the numbering of the source.

Consider six proteins from paper doi:10.1101/2023.02.25.529910 (bioRxiv, 2023).

B1: gpVdL-AA (bacteriophage P2 gpV residues 97-211, H197A/H199A) (domain or fragment)
chain: ADALHIRFPDGAVIEYEPETSALTVSGIKTASVTASGSVTATVPVVMVKASTRVTLDTPEVVCTNRLITGTLEVQKGGTMRGNIEHTGGELSSNGKVLHTAKAPGDSGGTTGSPL
On to B1, for which the “stoichiometry N” value in the series “crystal structure” is 3.

B2: gpVdL-FF (bacteriophage P2 gpV residues 97-211, H197F/H199F) (domain or fragment)
chain: B1 chain with A101F, A103F
For B2, in the series “crystal structure”, the “stoichiometry N” value came to 3.

B3: gpVdL-DEL (bacteriophage P2 gpV residues 97-196 plus an exogenous Leu197, Apex domain deleted) (domain or fragment)
chain: ADALHIRFPDGAVIEYEPETSALTVSGIKTASVTASGSVTATVPVVMVKASTRVTLDTPEVVCTNRLITGTLEVQKGGTMRGNIEHTGGELSSNGKVLHTL
Turning to B3, the binding result in the series “crystal structure” is “binds”.

B4: gpV-DEL (bacteriophage P2 gpV with the Apex domain deleted, ends at Thr196 plus an exogenous Leu197) (domain or fragment)
chain: MNTLANIQELARALRNMIRTGIIVETDLNAGRCRVQTGGMCTDWLQWLTHRAGRSRTWWAPSVGEQVLILAVGGELDTAFVLPGIYSGDNPSPSVSADALHIRFPDGAVIEYEPETSALTVSGIKTASVTASGSVTATVPVVMVKASTRVTLDTPEVVCTNRLITGTLEVQKGGTMRGNIEHTGGELSSNGKVLHTL
As for B4, the binding result in “SEC” is given as “binds”.

B5: gpV-AA (full-length bacteriophage P2 gpV, H197A/H199A) (natural protein)
chain: MNTLANIQELARALRNMIRTGIIVETDLNAGRCRVQTGGMCTDWLQWLTHRAGRSRTWWAPSVGEQVLILAVGGELDTAFVLPGIYSGDNPSPSVSADALHIRFPDGAVIEYEPETSALTVSGIKTASVTASGSVTATVPVVMVKASTRVTLDTPEVVCTNRLITGTLEVQKGGTMRGNIEHTGGELSSNGKVLHTAKAPGDSGGTTGSPL
As to B5, the binding result in “SEC” is given as “binds”.

B6: gpV-FF (full-length bacteriophage P2 gpV, H197F/H199F) (natural protein)
chain: B5 chain with A197F, A199F
For the protein B6, the binding result in “SEC” is “binds”.

Usually stoichiometry N stands for the number of molecules, sites or subunits per partner or assembly.
